Data: patent publication US20150010495A1

The substances below were run against […]n, n = 5 (100-mer), non-glycosylated (human) (assay: peptide ELISA, OD 492 nm; limit of the class, member by Table 2; reference: 20-mer).
Chain of […]n, n = 5 (100-mer), non-glycosylated (human) (peptide, as listed by the source): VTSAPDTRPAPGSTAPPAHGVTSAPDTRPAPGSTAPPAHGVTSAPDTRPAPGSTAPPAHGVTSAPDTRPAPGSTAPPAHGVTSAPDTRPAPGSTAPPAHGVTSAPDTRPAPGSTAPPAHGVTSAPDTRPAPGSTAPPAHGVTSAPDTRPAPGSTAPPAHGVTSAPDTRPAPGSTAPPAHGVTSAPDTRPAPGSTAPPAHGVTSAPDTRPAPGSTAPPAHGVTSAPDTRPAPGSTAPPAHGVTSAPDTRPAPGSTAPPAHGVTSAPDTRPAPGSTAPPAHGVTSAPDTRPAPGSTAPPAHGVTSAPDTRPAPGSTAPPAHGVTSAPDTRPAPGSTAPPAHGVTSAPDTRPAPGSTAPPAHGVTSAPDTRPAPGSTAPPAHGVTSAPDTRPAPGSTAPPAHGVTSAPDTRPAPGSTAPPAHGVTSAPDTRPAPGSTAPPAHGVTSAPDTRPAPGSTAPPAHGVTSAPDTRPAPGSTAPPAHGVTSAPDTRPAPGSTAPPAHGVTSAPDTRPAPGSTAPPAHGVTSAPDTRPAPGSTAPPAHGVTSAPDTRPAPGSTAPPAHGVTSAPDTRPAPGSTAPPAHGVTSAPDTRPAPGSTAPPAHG

214D4 (antibody) and B27.29 (antibody) fall in the same range of ratio of the optical density 100-mer/20-mer: 1.5 to 3 for the first, 1.5 to 3 for the second.

First: BC2 (antibody)
Second: C595 (antibody)
The ratio of the optical density 100-mer/20-mer of the first is higher: over 3 for the first, under 1.5 for the second.

For E29 (antibody), the ratio of the optical density 100-mer/20-mer was 1.5 to 3.
